27 substances from patent EP4740966A1 can be followed below.

Several values for one entry are separate records, joined by “and”; a condition that tells them apart may be missing. Equal entries are not always repeated. Where two headings read alike, the source gives them in different places.

Common to all, as to assay: co-expression of chains A and B 1:1 in HEK293, Protein A, non-reduced SDS-PAGE band intensity
Assay [1] addresses ScFv-Fc fusion protein, chain A with Y349C+T366W+K409A+K360E+Q347E.
For assay [2], the target named is ScFv-Fc fusion protein, chain A with Y349C+T366W+K409A.
Assay [3] shares this target. This is another data set of the same source.
For assay [4] the target is unchanged. This is another data set of the same source.
Assay [5] concerns the target ScFv-Fc fusion protein, chain A with Y349C+T366W+K409A+Q347R.
Assay [6] has as its target VhH-Fc fusion protein, chain B with T366S+L368A+Y407V+K409A+K392D.
Assay [7] has as its target ScFv-Fc fusion protein, chain A with T366W+K409A.
The target in assay [8] is VhH-Fc fusion protein, chain B with T366S+L368A+Y407V+D399S+F405K.
Assay [9] addresses Human IgG1-Fc, chain B with D356C+T366S+L368A+Y407V+K360E+Q347E (human) [IgG part: P0DOX5].
Assay [10] concerns the target Human IgG1-Fc, chain B with D356C+T366S+L368A+Y407V (human) [IgG part: P0DOX5].
Assay [11] shares this target. The source holds these as a separate data set.
Assay [12] deals with ScFv-Fc fusion protein (anti-Her2 single chain antibody-Fc), chain A with Y349C+T366W.
The target of assay [13] is VhH-Fc fusion protein, chain B with T366S+L368G+Y407A+K409A.
Assay [14] deals with ScFv-Fc fusion protein, chain A with Y349C+T366W+K409E.
The target in assay [15] is ScFv-Fc fusion protein, chain A with Y349C+T366W+F405K+Q347R.
The target in assay [16] is VhH-Fc fusion protein, chain B with D356C+T366S+L368A+Y407V.
The target in assay [17] is ScFv-Fc fusion protein, chain A with Y349C+T366W+F405K+K360E+Q347E.
Assay [18] has as its target ScFv-Fc fusion protein, chain A with T366W+K409A+Y349D+S354D.
For assay [19], the target named is Human IgG1-Fc, chain B with D356C+T366S+L368A+Y407V+F405K (human) [IgG part: P0DOX5].
The target is the same in assay [20]. This is another data set of the same source.
Assay [21] addresses ScFv-Fc fusion protein, chain A with T366W+F405K+D399S.
In assay [22] the target is VhH-Fc fusion protein, chain B with T366S+L368A+Y407V+K409A+E357A.
Assay [23] concerns the target Human IgG1-Fc, chain B with D356C+T366S+L368A+Y407V+F405K+Q347R (human) [IgG part: P0DOX5].
Assay [24] deals with VhH-Fc fusion protein (camel single domain antibody variable region-Fc), chain B with D356C+T366S+L368A+Y407V+F405K.
For assay [25], the target named is ScFv-Fc fusion protein, chain A with T366W+K409A+Y349D.
Assay [26] concerns the target ScFv-Fc fusion protein, chain A with Y349C+T366W+F405K.
The target is the same in assay [27]. The source holds these as a separate data set.
Assay [28] shares this target. The source holds these as a separate data set.
In assay [29] the target is ScFv-Fc fusion protein, chain A with T366W+F405K.
In assay [30] the target is Human IgG1-Fc, chain B with D356C+T366S+L368A+Y407V+Q347R (human) [IgG part: P0DOX5].
Assay [31] has as its target ScFv-Fc fusion protein, chain A with T366W+K409A+K392D.
Assay [32] has as its target Human IgG1-Fc, chain B with D356C+T366S+L368A+Y407V+F405K+K360E+Q347E (human) [IgG part: P0DOX5].
Assay [33] concerns the target ScFv-Fc fusion protein, chain A with T366W+F405K+Y349D+S354D.

Chain of ScFv-Fc fusion protein, chain A with Y349C+T366W+K409A (chain): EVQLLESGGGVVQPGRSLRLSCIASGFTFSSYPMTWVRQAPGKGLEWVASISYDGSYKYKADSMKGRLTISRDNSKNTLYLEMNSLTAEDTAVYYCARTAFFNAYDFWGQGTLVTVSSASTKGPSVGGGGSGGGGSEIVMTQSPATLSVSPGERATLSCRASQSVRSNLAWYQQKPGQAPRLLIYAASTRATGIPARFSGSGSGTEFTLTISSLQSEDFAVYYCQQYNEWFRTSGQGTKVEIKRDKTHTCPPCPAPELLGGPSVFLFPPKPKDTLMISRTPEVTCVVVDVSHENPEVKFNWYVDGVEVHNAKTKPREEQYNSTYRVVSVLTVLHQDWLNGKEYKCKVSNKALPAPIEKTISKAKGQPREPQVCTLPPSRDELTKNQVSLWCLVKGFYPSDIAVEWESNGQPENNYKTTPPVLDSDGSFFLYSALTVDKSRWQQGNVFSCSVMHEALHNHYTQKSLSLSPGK
Chain of ScFv-Fc fusion protein, chain A with Y349C+T366W+F405K (chain): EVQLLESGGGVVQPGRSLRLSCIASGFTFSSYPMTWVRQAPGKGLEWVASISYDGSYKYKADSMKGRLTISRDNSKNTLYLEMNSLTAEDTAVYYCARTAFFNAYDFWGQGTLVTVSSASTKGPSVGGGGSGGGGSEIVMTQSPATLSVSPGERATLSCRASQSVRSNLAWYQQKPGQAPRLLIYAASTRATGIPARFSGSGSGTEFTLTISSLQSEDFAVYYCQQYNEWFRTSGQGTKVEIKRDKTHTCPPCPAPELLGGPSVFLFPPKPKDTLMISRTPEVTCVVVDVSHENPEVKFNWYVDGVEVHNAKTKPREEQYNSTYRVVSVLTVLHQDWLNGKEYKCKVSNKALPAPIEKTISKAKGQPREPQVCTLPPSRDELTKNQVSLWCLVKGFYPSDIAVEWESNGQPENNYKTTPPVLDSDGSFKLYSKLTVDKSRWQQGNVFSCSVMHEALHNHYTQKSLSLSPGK
Chain of ScFv-Fc fusion protein (anti-Her2 single chain antibody-Fc), chain A with Y349C+T366W (chain): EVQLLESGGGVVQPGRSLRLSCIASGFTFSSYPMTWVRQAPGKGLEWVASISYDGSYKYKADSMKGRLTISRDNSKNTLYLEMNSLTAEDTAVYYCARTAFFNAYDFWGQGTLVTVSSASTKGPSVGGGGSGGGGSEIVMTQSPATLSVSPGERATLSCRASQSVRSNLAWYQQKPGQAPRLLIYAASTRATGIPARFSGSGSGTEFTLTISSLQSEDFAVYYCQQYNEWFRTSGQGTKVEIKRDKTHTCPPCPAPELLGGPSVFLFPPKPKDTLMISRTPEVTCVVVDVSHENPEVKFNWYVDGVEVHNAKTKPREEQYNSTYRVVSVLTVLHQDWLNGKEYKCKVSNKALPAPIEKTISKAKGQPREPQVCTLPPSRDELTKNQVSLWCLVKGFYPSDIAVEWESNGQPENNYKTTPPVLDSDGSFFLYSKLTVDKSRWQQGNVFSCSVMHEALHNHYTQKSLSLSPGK
Chain of ScFv-Fc fusion protein, chain A with Y349C+T366W+K409A+Q347R (chain): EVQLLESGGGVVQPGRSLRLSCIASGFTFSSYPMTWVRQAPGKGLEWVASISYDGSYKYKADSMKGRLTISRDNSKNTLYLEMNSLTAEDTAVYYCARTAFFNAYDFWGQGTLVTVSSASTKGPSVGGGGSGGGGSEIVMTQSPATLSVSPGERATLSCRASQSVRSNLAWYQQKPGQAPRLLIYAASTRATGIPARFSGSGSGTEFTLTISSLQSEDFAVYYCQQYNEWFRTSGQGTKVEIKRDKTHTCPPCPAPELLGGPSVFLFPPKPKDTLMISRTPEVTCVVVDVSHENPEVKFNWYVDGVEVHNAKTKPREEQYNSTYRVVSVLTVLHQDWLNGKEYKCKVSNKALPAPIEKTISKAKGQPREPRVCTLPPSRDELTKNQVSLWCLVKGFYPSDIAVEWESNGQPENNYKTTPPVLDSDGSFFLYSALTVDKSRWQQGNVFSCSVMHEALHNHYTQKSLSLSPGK
Chain of ScFv-Fc fusion protein, chain A with T366W+K409A (chain): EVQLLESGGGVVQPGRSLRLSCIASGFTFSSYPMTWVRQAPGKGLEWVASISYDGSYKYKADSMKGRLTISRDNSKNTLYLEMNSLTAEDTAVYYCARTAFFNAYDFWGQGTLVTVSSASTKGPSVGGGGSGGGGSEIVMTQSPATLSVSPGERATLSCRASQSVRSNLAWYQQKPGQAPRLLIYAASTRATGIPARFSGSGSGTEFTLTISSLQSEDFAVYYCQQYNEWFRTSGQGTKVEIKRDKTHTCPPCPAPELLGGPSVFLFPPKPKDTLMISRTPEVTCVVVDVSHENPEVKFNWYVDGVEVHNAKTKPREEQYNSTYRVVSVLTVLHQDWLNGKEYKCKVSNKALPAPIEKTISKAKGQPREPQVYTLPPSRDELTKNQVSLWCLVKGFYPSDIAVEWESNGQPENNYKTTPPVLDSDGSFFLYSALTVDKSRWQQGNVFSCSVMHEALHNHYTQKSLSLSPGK
Chain of ScFv-Fc fusion protein, chain A with Y349C+T366W+K409E (chain): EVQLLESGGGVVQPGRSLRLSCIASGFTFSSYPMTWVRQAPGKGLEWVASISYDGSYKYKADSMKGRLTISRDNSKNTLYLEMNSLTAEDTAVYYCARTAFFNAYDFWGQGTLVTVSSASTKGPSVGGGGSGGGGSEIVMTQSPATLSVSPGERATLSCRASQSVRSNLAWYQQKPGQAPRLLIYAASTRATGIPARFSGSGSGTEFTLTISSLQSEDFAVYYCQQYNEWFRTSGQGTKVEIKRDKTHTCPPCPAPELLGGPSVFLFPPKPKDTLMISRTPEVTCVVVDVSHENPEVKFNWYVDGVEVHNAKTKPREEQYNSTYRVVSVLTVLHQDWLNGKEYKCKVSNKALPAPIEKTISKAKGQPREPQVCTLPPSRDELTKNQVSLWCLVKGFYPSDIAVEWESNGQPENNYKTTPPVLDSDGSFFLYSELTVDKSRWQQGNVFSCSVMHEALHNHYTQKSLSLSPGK
Chain of ScFv-Fc fusion protein, chain A with T366W+F405K+Y349D+S354D (chain): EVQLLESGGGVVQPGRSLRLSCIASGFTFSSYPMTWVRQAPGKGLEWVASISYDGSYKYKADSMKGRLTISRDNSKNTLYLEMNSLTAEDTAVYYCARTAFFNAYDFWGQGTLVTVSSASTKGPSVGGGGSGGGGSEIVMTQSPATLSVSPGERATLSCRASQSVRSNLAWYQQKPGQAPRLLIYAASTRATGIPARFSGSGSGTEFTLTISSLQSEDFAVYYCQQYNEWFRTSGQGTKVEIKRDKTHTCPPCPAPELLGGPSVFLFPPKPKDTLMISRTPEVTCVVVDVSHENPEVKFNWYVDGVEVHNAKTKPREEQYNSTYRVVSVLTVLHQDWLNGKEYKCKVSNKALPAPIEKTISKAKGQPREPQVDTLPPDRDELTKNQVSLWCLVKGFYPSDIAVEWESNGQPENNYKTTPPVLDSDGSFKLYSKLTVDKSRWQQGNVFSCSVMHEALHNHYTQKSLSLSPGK
Chain of ScFv-Fc fusion protein, chain A with T366W+K409A+K392D (chain): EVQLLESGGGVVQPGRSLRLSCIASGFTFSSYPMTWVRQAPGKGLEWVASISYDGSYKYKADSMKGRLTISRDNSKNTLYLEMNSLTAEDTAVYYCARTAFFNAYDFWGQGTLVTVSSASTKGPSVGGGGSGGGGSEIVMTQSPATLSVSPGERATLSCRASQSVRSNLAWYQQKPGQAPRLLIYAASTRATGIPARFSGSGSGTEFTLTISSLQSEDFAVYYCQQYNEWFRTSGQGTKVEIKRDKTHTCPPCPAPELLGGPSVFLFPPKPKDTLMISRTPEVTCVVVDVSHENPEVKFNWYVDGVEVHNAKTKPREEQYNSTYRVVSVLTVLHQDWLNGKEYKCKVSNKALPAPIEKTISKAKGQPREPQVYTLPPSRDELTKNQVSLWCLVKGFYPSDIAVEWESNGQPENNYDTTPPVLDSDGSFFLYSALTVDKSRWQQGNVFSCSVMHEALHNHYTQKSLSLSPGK
Chain of ScFv-Fc fusion protein, chain A with Y349C+T366W+F405K+K360E+Q347E (chain): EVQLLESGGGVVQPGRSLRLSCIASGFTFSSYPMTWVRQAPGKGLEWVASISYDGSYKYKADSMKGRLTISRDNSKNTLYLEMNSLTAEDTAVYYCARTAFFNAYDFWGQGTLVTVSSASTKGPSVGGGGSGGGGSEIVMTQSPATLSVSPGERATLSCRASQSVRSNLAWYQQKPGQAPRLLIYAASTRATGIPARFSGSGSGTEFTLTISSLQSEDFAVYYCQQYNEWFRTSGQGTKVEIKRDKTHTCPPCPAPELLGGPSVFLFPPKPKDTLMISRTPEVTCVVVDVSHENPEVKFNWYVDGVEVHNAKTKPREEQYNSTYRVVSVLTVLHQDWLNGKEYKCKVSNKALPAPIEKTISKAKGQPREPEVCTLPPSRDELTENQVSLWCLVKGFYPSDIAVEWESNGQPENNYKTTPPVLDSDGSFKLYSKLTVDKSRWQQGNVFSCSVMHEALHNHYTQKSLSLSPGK
Chain of ScFv-Fc fusion protein, chain A with Y349C+T366W+K409A+K360E+Q347E (chain): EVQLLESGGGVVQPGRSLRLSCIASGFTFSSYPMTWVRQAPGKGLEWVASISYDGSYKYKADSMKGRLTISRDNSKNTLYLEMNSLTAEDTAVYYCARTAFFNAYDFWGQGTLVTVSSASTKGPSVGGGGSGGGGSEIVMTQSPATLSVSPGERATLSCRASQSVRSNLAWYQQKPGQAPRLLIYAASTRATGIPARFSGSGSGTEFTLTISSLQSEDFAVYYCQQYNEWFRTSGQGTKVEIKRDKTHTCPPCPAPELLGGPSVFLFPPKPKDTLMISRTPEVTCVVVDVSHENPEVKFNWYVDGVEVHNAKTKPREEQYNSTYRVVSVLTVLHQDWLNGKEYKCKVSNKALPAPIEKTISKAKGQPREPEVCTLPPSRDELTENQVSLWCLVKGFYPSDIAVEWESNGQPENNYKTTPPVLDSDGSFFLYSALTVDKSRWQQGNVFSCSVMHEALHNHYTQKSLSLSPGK

As for “ScFv-Fc fusion protein, chain A with Y349C+T366W+K409A+K360E+Q347E”, the ScFv-Fc homodimer (%) in [1] amounted to 24%.

Consider “ScFv-Fc fusion protein, chain A with Y349C+T366W+K409A”, for which the ScFv-Fc homodimer (%) in assay [2] was 21%; in assay [3], 10%; in assay [4], 13%.

In turn, “ScFv-Fc fusion protein, chain A with Y349C+T366W+K409A+Q347R” showed a ScFv-Fc homodimer (%) in assay [5] of 21%.

The substance “VhH-Fc fusion protein, chain B with T366S+L368A+Y407V+K409A+K392D” registered a VhH-Fc homodimer (%) in assay [6] of 13%.

In turn, “ScFv-Fc fusion protein, chain A with T366W+K409A” yielded a ScFv-Fc homodimer (%) in assay [7] of 15%.

The substance “VhH-Fc fusion protein, chain B with T366S+L368A+Y407V+D399S+F405K” came in with a VhH-Fc homodimer (%) in [8] of 13%.

Substance “Human IgG1-Fc, chain B with D356C+T366S+L368A+Y407V+K360E+Q347E (from UniProt P0DOX5 223-449)” yielded a Fc homodimer (%) in [9] of 24%.

Consider “Human IgG1-Fc, chain B with D356C+T366S+L368A+Y407V (from UniProt P0DOX5 223-449)”, for which the Fc homodimer (%) in [10] worked out at 23%; in assay [11], 20%.

Take “ScFv-Fc fusion protein (anti-Her2 single chain antibody-Fc), chain A with Y349C+T366W”: in assay [12], the ScFv-Fc homodimer (%) was 29% and 24%.

In assay [13], “VhH-Fc fusion protein, chain B with T366S+L368G+Y407A+K409A” yielded a VhH-Fc homodimer (%) of 7%.

In assay [14], “ScFv-Fc fusion protein, chain A with Y349C+T366W+K409E” had a ScFv-Fc homodimer (%) of 25%.

In [15], “ScFv-Fc fusion protein, chain A with Y349C+T366W+F405K+Q347R” yielded a ScFv-Fc homodimer (%) of 14%.

Turning to “VhH-Fc fusion protein, chain B with D356C+T366S+L368A+Y407V”, the VhH-Fc homodimer (%) in assay [16] came to 27%.

For the substance “ScFv-Fc fusion protein, chain A with Y349C+T366W+F405K+K360E+Q347E”, in assay [17], the ScFv-Fc homodimer (%) stood at 14%.

Turning to “ScFv-Fc fusion protein, chain A with T366W+K409A+Y349D+S354D”, the ScFv-Fc homodimer (%) in [18] was 10%.

Turning to “Human IgG1-Fc, chain B with D356C+T366S+L368A+Y407V+F405K (from UniProt P0DOX5 223-449)”, the Fc homodimer (%) in assay [19] is 10%; in assay [20], 18% and 13%.

For “ScFv-Fc fusion protein, chain A with T366W+F405K+D399S”, in assay [21], the ScFv-Fc homodimer (%) was 6%.

As to “VhH-Fc fusion protein, chain B with T366S+L368A+Y407V+K409A+E357A”, the VhH-Fc homodimer (%) in assay [22] worked out at 7%.

As for “Human IgG1-Fc, chain B with D356C+T366S+L368A+Y407V+F405K+Q347R (from UniProt P0DOX5 223-449)”, the Fc homodimer (%) in assay [23] was 12%.

In the case of “VhH-Fc fusion protein (camel single domain antibody variable region-Fc), chain B with D356C+T366S+L368A+Y407V+F405K”, the VhH-Fc homodimer (%) in assay [24] was determined as 19%.

“ScFv-Fc fusion protein, chain A with T366W+K409A+Y349D” gave a ScFv-Fc homodimer (%) in assay [25] of 14%.

As to “ScFv-Fc fusion protein, chain A with Y349C+T366W+F405K”, the ScFv-Fc homodimer (%) was 17% in assay [26], 9% in [27] and 10% in assay [28].

On to “ScFv-Fc fusion protein, chain A with T366W+F405K”, for which, in assay [29], the ScFv-Fc homodimer (%) worked out at 5%.

“Human IgG1-Fc, chain B with D356C+T366S+L368A+Y407V+Q347R (from UniProt P0DOX5 223-449)” came in with a Fc homodimer (%) in assay [30] of 14%.

Take “ScFv-Fc fusion protein, chain A with T366W+K409A+K392D”: the ScFv-Fc homodimer (%) in assay [31] turned out to be 7%.

The substance “Human IgG1-Fc, chain B with D356C+T366S+L368A+Y407V+F405K+K360E+Q347E (from UniProt P0DOX5 223-449)” yielded a Fc homodimer (%) in [32] of 8%.

The substance “ScFv-Fc fusion protein, chain A with T366W+F405K+Y349D+S354D” yielded a ScFv-Fc homodimer (%) in [33] of 9%.
